This is an account of results in patent US20190359712A1 (Daiichi Sankyo, published 2019).

Substitutions are numbered along the chain they refer to. Names may count otherwise.

Assay [1] deals with T1, CD3 immobilized on a sensor chip (Example 7)-1-2).
T1 construct: the text says only 'CD3 immobilized on a sensor chip'; also called human CD3
Description: SPR (BIAcore T-200), CD3 immobilized, scFv injected at five concentrations; concentration giving 1/2 Rmax. The procedure: Five different concentrations of the scFv were injected into CD3 immobilized on a sensor chip. Rmax was estimated from the resulting response, and the antibody concentration that reached 1/2 thereof was defined as the dissociation constant of the scFv for CD3.
In general terms: SPR reads the build-up and loss of mass on a sensor chip optically.

The target in assay [2] is T2, human CD3 on human PBMC (human, UniProt P07766 23-207).
T2 construct: Native CD3 complex on T cells in PBMC; the other chains of the complex are native; also called human CD3 (PBMC)
Description: flow cytometry on human PBMC, Penta-His Alexa Fluor 488 detection (rMFI). The procedure:
Commercially available human PBMC (Cellular Technology Ltd. (CTL)) was adjusted to an appropriate concentration with PBS containing 5% FBS. LIVE/DEAD Fixable Near-IR Dead Cell Stain Kit (Thermo Fisher Scientific Inc.) and an anti-CD19 antibody (Beckman Coulter Inc.) were added to the cells, which were then left standing at 4° C. for 30 minutes. The cells were washed twice with PBS containing 5% FBS, then adjusted to a concentration of 1×10⁶ cells/mL with PBS containing 5% FBS, added at a concentration of 100 μL/well to a 96-well U-bottomed microplate, and centrifuged to remove a supernatant. […] The cells were washed twice with PBS containing 5% FBS. Then, Penta-His Alexa Fluor 488 (Qiagen N.V.) diluted with PBS containing 5% FBS was added at a concentration of 30 μL/well, and the plate was left standing at 4° C. for 30 minutes. The cells were washed twice with PBS containing 5% FBS and then resuspended in PBS containing 5% FBS, followed by detection using a flow cytometer (FACSCanto™ II; Becton, Dickinson and Company). The data was analyzed using Flowjo (Tree Star Inc.). The mean fluorescence intensity (MFI) of Alexa Fluor 488 in a fraction free of dead cells and CD19-positive cells was calculated. The MFI value of the scFv-unsupplemented sample was subtracted from the MFI value of the scFv-supplemented sample to calculate a relative value of MFI (rMFI).

The target of assay [3] is T3, cynomolgus monkey CD3 on cynomolgus monkey PBMC or T cell line HSC-F (cynomolgus monkey, UniProt Q95LI5 22-198).
T3 construct: whole, on cells; Native CD3 complex on monkey T cells; also called cynomolgus monkey CD3 (PBMC); cynomolgus monkey CD3 antigen
Description: flow cytometry on cynomolgus monkey PBMC. On the technique in general: A flow cytometer gives signals particle by particle.

The target of assay [4] is T2, human CD3 on human PBMC. The assay is described as follows: flow cytometry on human PBMC.
The target of assay [5] is T3, cynomolgus monkey CD3 on cynomolgus …. The assay is described as follows: flow cytometry on cynomolgus monkey PBMC, Penta-His Alexa Fluor 488 detection, rMFI.
Assay [6] has as its target T4, recombinant human TROP-2/human IgG Fc fused form (R&D Systems, Inc.) (human, UniProt P09758 27-274, limits assumed).
T4 construct: Bought reagent; also called TROP-2/Fc; not shown: human IgG Fc
T4 sequence (looked up): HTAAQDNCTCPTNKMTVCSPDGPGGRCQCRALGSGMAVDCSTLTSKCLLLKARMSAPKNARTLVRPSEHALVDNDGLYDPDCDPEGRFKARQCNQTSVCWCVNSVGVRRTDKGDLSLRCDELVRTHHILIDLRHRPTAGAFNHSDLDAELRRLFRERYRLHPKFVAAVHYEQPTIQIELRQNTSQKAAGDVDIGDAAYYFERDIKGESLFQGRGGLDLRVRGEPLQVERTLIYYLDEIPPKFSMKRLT
The assay is described as follows: SPR (BIAcore 3000), TROP-2/Fc captured on anti-human IgG(Fc), bispecific as analyte, 1:1 binding model. The procedure: The bispecific molecule was assayed for its binding to TROP2 using BIAcore 3000 (GE Healthcare Bio-Sciences Corp.) by the capture method, which involves capturing the antigen by an anti-human IgG antibody and assaying the bispecific molecule as an analyte. The antigen used was recombinant human TROP-2/human IgG Fc fused form (R&D Systems, Inc.). Approximately 2000 RU of the anti-human IgG(Fc) antibody (Human Antibody Capture Kit, GE Healthcare Bio-Sciences Corp.) was covalently bound to a sensor chip CM5 (GE Healthcare Bio-Sciences Corp.) by the amine coupling method. Similarly, this antibody was immobilized onto a reference cell. The running buffer used was HBS-P (10 mM HEPES (pH 7.4), 0.15 M NaCl, and 0.005% Surfactant P20). The bispecific molecule was prepared at a 2-fold dilution ratio from 200 nM to 1 nM. A 1 μg/ml solution of the antigen was added onto the anti-human IgG(Fc) antibody-immobilized chip for approximately […]. Then, each concentration of the bispecific molecule was added at a flow rate of 30 μl/min for 300 seconds. Subsequently, the dissociation phase was monitored for 600 seconds. A 3 M magnesium chloride solution was added as a regenerating solution for 30 seconds. The data was analyzed using the 1:1 binding model of analytical software (BIAevaluation software, version 4.1.1) to calculate an association rate constant (ka), a dissociation rate constant (kd), and a dissociation constant (KD; KD=kd/ka).

Assay [7] has as its target T2, human CD3 on human PBMC. Description: flow cytometry on human PBMC (dead cells and CD19-positive cells excluded), Penta-His Alexa Fluor 488 detection, rMFI.

T3 sequence (Q95LI5 22-198): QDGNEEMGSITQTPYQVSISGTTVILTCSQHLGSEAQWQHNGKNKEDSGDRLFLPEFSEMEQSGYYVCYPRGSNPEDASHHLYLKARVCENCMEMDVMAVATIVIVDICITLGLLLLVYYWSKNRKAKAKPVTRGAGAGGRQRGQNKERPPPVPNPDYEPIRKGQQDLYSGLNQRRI

B1: C3E-3007 scFv (humanized OKT3 scFv) (scFv)
scFv: QVQLVQSGAESKKPGASVKVSCKASGYTFTRYTMHWVRQAPGQGLEWMGYINPSRGYTNYNQKFKDRVTITADKSTSTAYMELSSLRSEDTAVYYCARYYDDHYCLDYWGQGTLVTVSSGGGGSGGGGSGGGGSQIQMTQSPSSLAVSLGERATITCSASSSVSYMNWYQQKPGKAPKRWIYDTSKLASGVPDRFSGSGSGTDFTLTISSLQAEDVATYYCQQWSSNPFTFGQGTKVEIKRGASAAAGSGGDYKDDDDKGAAAHHHHHH
Take B1: in assay [1], the Kd – broadly, the constant that tells how readily two partners part at equilibrium – worked out at 400 nM. For the same molecule, the binding result in the assay with human CD3 on human PBMC [2] was “binds”.

B2: C3E-7035 (humanized anti-CD3 scFv) (scFv)
scFv: GEVQLVESGGGLVQPGGSLRLSCAASGVTFNYYGMSWIRQAPGKGLEWVASITNSGGRIYYPDSVKGRFTISRENTQKTLYLQMNSLRAEDTAVYYCTLDGRDGWVAYWGQGTLVTVSSGGGGSGGGGSGGGGSMAQAVLTQPSSVSGVPGQRVTISCKRNTGNIGSNYVNWYQQLPGTAPKLLIYRDDKRPSGVPDRFSGSKSGTSASLAITGFQAEDEADYYCQSYSSGFIFGGGTKLTVLGAAAGAGGDYKDDDDKGAAAHHHHHH
As for B2, the Kd in assay [1] amounted to 22 nM. For the same molecule, the binding result (with human CD3 on human PBMC [2]; in assay [3]) was “binds” each time.

B3: C3E-7078 (CDR modified humanized anti-CD3 scFv) (scFv)
scFv: GEVQLVESGGGLVQPGGSLRLSCAASGVTFNYYGMSWIRQAPGKGLEWVASITRSGGRIYYPDSVKGRFTISRENTQKTLYLQMNSLRAEDTAVYYCTLDGRDGWVAYWGQGTLVTVSSGGGGSGGGGSGGGGSNFMLTQPHSVSESPGKTVTISCKRNTGNIGSNYVNWYQQHEGSSPTTIIYRDDKRPDGVSDRFSGSIDRSSKSASLTISNLKTEDEADYFCQSYSSGFIFGGGTKLTVLGAAAGAGGDYKDDDDKGAAAHHHHHH
notes: the change is already in the entry
Consider B3, for which the binding result (in assay [3]; in the assay with human CD3 on human PBMC [4]) was “binds” each time.

B4: C3E-7086 (CDR modified humanized anti-CD3 scFv) (scFv)
scFv: B3 scFv with D186G
notes: C3E-7078 with glycine for aspartic acid at position 52 of the VL; the change is already in the entry
Turning to B4, the binding result (in assay [3]; with human CD3 on human PBMC [4]) was “binds” in each case.

B5: C3E-7079 (CDR modified humanized anti-CD3 scFv) (scFv)
scFv: B3 scFv with R54S
notes: as for B3
For B5, the binding result (in assay [3]; in the assay with human CD3 on human PBMC [4]) was “binds” each time.

B6: C3E-7088 (CDR modified humanized anti-CD3 scFv) (scFv)
scFv: B3 scFv with D186N
notes: C3E-7078 with asparagine for aspartic acid at position 52 of the VL; the change is already in the entry
On to B6, for which the binding result (in assay [3]; with human CD3 on human PBMC [4]) was “binds” in each case.

B7: C3E-7095 (CDR modified humanized anti-CD3 scFv) (scFv)
scFv: B3 scFv with R54S, D186A
notes: C3E-7079 with alanine for aspartic acid at position 52 of the VL; the change is already in the entry
Regarding B7, the binding result (in assay [3]; with human CD3 on human PBMC [4]) was “binds” in each case.

B8: C3E-7093 (CDR modified humanized anti-CD3 scFv) (scFv)
scFv: B3 scFv with R54S, D186N
notes: C3E-7079 with asparagine for aspartic acid at position 52 of the VL; the change is already in the entry
As to B8, the binding result (in assay [3]; with human CD3 on human PBMC [4]) was “binds” throughout.

B9: C3E-7091 (CDR modified humanized anti-CD3 scFv) (scFv)
scFv: B3 scFv with R54S, D186G
notes: C3E-7079 with glycine for aspartic acid at position 52 of the VL; the change is already in the entry
As for B9, the binding result (in assay [3]; in the assay with human CD3 on human PBMC [4]) was “binds” each time.

B10: C3E-7087 (CDR modified humanized anti-CD3 scFv) (scFv)
scFv: B3 scFv with D186Q
notes: C3E-7078 with glutamine for aspartic acid at position 52 of the VL; the change is already in the entry
As for B10, the binding result (in assay [3]; in the assay with human CD3 on human PBMC [4]) was “binds” each time.

B11: C3E-7092 (CDR modified humanized anti-CD3 scFv) (scFv)
scFv: B3 scFv with R54S, D186Q
notes: C3E-7079 with glutamine for aspartic acid at position 52 of the VL; the change is already in the entry
For the molecule B11, the binding result (in assay [3]; with human CD3 on human PBMC [4]) was “binds” each time.

B12: C3E-7090 (CDR modified humanized anti-CD3 scFv) (scFv)
scFv: B3 scFv with D186A
notes: C3E-7078 with alanine for aspartic acid at position 52 of the VL; the change is already in the entry
Consider B12, for which the binding result (in assay [3]; with human CD3 on human PBMC [4]) was “binds” in each case.

B13: C3E-7089 (CDR modified humanized anti-CD3 scFv) (scFv)
scFv: B3 scFv with D186S
notes: C3E-7078 with serine for aspartic acid at position 52 of the VL; the change is already in the entry
Turning to B13, the binding result (in assay [3]; with human CD3 on human PBMC [4]) was “binds” in each case.

B14: C3E-7094 (CDR modified humanized anti-CD3 scFv) (scFv)
scFv: B3 scFv with R54S, D186S
notes: C3E-7079 with serine for aspartic acid at position 52 of the VL; the change is already in the entry
Regarding B14, the binding result (in assay [3]; with human CD3 on human PBMC [4]) was “binds” throughout.

B15: C3E-7036 (humanized anti-CD3 scFv) (scFv)
scFv: GEVQLVESGGGLVQPGGSLRLSCAASGVTFNYYGMSWIRQAPGKGLEWVASITNSGGRIYYPDSVKGRFTISRENTQKTLYLQMNSLRAEDTAVYYCTLDGRDGWVAYWGQGTLVTVSSGGGGSGGGGSGGGGSNFMLTQPSSVSGVPGQRVTISCTGNTGNIGSNYVNWYQQLPGTAPKLLIYRDDKRPSGVPDRFSGSKSGTSASLAITGFQAEDEADYYCQSYSSGFIFGGGTKLTVLGAAAGAGGDYKDDDDKGAAAHHHHHH
Molecule B15 yielded a Kd in assay [1] of 25 nM. Further, the binding result (with human CD3 on human PBMC [2]; in assay [3]) was “binds” each time.

B16: C3E-7085 (CDR modified humanized anti-CD3 scFv) (scFv)
scFv: B15 scFv with N54R
notes: C3E-7036 with arginine for asparagine at position 53 of the VH; the change is already in the entry
Regarding B16, the binding result (in assay [3]; with human CD3 on human PBMC [4]) was “binds” throughout.

B17: T2C-0006 (HT1-11 scFv/C3E-7036 bispecific molecule) (bispecific antibody)
chain: GQVQLVQSGAEVKKPGASVKVSCKASGYTFTTAGMQWVRQAPGQGLEWMGWINTHSGVPKYAEDFKGRVTISADTSTSTAYLQLSSLKSEDTAVYYCARSGFGSSYWYFDVWGQGTLVTVSSGGGGSGGGGSGGGGSDIQMTQSPSSLSASVGDRVTITCKASQDVSTAVAWYQQKPGKAPKLLIYSASYRYTGVPSRFSGSGSGTDFTLTISSLQPEDFAVYYCQQHYITPLTFGQGTKLEIKRTGGGGSEVQLVESGGGLVQPGGSLRLSCAASGVTFNYYGMSWIRQAPGKGLEWVASITNSGGRIYYPDSVKGRFTISRENTQKTLYLQMNSLRAEDTAVYYCTLDGRDGWVAYWGQGTLVTVSSGGGGSGGGGSGGGGSNFMLTQPSSVSGVPGQRVTISCTGNTGNIGSNYVNWYQQLPGTAPKLLIYRDDKRPSGVPDRFSGSKSGTSASLAITGFQAEDEADYYCQSYSSGFIFGGGTKLTVLGAAAGAGGDYKDDDDKGAAAHHHHHH
notes: Tandem scFv; also called anti-TROP2-CD3 bispecific molecule
On to B17, for which the binding result (in assay [5]; with human CD3 on human PBMC [7]) was “binds” each time. Also, in assay [6], the Kd came out at 9.3 nM.
